According to PMC10636138:

Biological target: SARS-CoV-2 B.1 (Wuhan) RBD
Test: BLI

Question: CR3022 was tested. Which Kd did it give?
Answer: 22.1 nM
